Test results: patent publication US20240207429A1, “LINKERS, DRUG LINKERS AND CONJUGATES THEREOF AND METHODS OF USING THE SAME” (ProfoundBio US Co., priority 2021, published 2024)

Tested on: Hela cells
Test: Flow cytometry binding to Hela cells
Format: cell-based
Details: transfection supernatants, FIG. 6
Description: The binding activity of the antibodies to Hela cells (ATCC@ CCL-2, provided by COBIOER) and to RPTEC/TERT1 cells (ATCC@ CRL-4031, provided by COBIOER) was tested by flow cytometry using the transfection supernatants. Briefly, target cells were digested with 0.02% EDTA-2Na, centrifuged at 1500 rpm for 3 mins, and resuspended with PBS. After counting, the cells were added to a 1.5 ml centrifuge tube with 1×10^6 cells per tube, centrifuged at 1500 rpm for 5 minutes, and the supernatant was discarded. Then all the operations were carried out on an ice bath. 100 μL of transfection supernatant was added to each 1.5 ml centrifuge tube. Blank cells, blank cells plus secondary antibody, medium and HEK293 supernatant were set up as the controls. The reaction was performed on an ice bath for 1 hour. Then the cells were pelleted and washed twice with PBS. The secondary antibody, goat anti-Human IgG (PE, abcam, ab98596), was diluted (1:200) and added using 100 μL per tube. The reaction was performed on an ice bath for 1 hour in the dark. The cells were pelleted again and washed twice with PBS, resuspended in 300 μL PBS, and FL2 fluorescence readings were measured by cytometry. The results were analyzed by FlowJo™10 software.
Anti-FOLR1 antibody binding to Hela and RPTEC/TERT1 cells was tested by FACS. The study was carried out as described above. […]

B1: F40: Anti-FOLR1 antibody clone: "Clone F40 has a different HCDRs and LCDRs, and with different HFR and LFR" (antibody, V domains shown)
VH: EVQLLESGGGVVQPGRSLRLSCAASGFTFSSYAMHWVRQAPGKGLEWVAVISYDGSNKYYADSVKGRFIISRDNSKNTVYLQMNSLRAEDTAVYYCARPTYVFTYTGSSFDYWGQGTQVTVSS
VL: DIQVTQSPSSLSASLGDTVSITCRASRGLTDSVAWYQQKPGQAPKLLIYAASTLQSGVPSRFGGSGSGSYFTLTITSLQPEDVATYYCQNYKSAPWTFGQGTKVEIK
Hela cell binding: weakly positive
